Data on one molecule can be found in US8084213, “Selection” (Domantis Limited).

Data set [1] addresses scFv(31IJ1)-(KEAAA)6-scArc-HA (Phage P22 / human scFv?). Description: co-capture on protein A, protein L, fluorescein; with anti-HA 3F10. The note with it: tags: N-terminal scFv fusion, C-terminal HA; chain copies: 2 scArc per operator (inferred). Here is the method:
In the solution expression experiments 3 µl of 1.7 nM PCR-amplified pIE7aA, pIE7a2A, pIE7a3A, pIE7a4A, pIE7aA-scFv(31IJ1), pIE7a2A-scFv(31 Ul), pIE7a3A-scFv (31IJ1) or pIE7a4A-scFv(31IJ1) template in 0.2 mg/ml tRNA is added to 25 µl EcoPro T7 in vitro translation mix (Novagen), supplemented with 0.75 µl of 100 mM oxidized glutathione (Sigma) and 0.25 µl […] 3F10 αHA mAb (Roche). Each reactions is split into three 9 µl aliquots. Two of the three in vitro translation aliquots of pIE7aA-scFv(31IJ1), pIE7a2A-scFv(31IJ1), pIE7a3A-scFv(31IJ1) or pIE-7a4A-scFv(31IJ1) are immediately combined with the aliquots of pIE7aA, pIE7a2A, pIE7a3A or pIE7a4A expression reactions respectively, one before and the other after the four-hour incubation at 25° C.
During the translation reaction the streptavidin-coated PCR tubes, cut from Strep Thermofast 96-well plates (Abgene), are first incubated at room temperature for three hours with 50 µl of at least 40 nM biotinylated protein A (Sigma), protein L (Pierce) fluorescein (Molecular Probes) of BSA (Sigma) in PBS. The coating buffer is thereafter removed and any remaining free biotin-binding sites are blocked with a 15 min pulse of 50 µg/ml biotinylated BSA in PBS. The pre-coated wells are thereafter three times washed with PBS and then filled with 100 µl of binding buffer C+ (100 mM KCl, 20 mM Tris, 5 mM MgCl2, 0.05% Tween 20, 0.05 mM EDTA, 1% BSA). […]

In a further data set the target is Vh(DOM1h-10-27)-scArc-HA (Phage P22 / human Vh). Description: DNA co-captured on protein A and human TNF receptor, not BSA. The note with it: tags: N-terminal Vh dAb fusion, C-terminal HA; chain copies: 2 scArc per operator (inferred). Here is the method: The functional activity of the V_H(DOM1h-10-27)-scArc fusion protein can be assessed by PCR amplification of the DNA co-captured during the V_H-dependent immunoprecipitation of the in vitro translation reaction product. As in the case of $V_\kappa$-scArc fusion constructs, 1 µl of 1.7 nM template in 0.2 mg/ml tRNA is added to 25 µl EcoPro T7 in vitro translation mix (Novagen), supplemented with 0.75 µl of 100 mM oxidized glutathione (Sigma), and incubated at 25° C. for four hours. During the translation reaction the streptavidin-coated PCR tubes, cut from Strep Thermofast 96-well plates (Abgene), are first incubated at room temperature for three hours with 50 µl of at least 40 nM biotinylated target protein in PBS. The coating buffer is thereafter removed and any remaining free biotin-binding sites are blocked with a 15 min pulse of 50 µg/ml biotinylated BSA in PBS. The precoated wells are thereafter three times washed with PBS and then filled with 100 µl of binding buffer C+ (100 mM KCl, 20 mM Tris, 5 mM MgCl_2, 0.05% Tween 20, 0.05 mM EDTA, 1% BSA). Upon completion of the translation reaction the products are diluted in Buffer C+ and applied to the pre-coated and blocked PCR tubes, allowed to bind for 30 min at room temperature and washed 4 times with 150 µl of Buffer C+. […]

B1: Arc operator, one copy, on linear genetic element (dsDNA)
DNA 1: ATGATAGAAGCACTCTACTAT
DNA 2: ATAGTAGAGTGCTTCTATCAT
Take B1: the binding result (in data set [1]; in the data set with Vh(DOM1h-10-27)-scArc-HA) was “binds” throughout.
